Values belong to the molecule of their own block, whether it stands above or below them.
How the values were obtained:
[1] = biological target: VEGF-A165 (produced from CHO cell) (UniProt P15692); experiment: SPR, BIAcore 3000, VEGF-A immobilized on CM5 chip
[2] = biological target: T1, TNFR2-Fc (also known as Etarnercept, U.S. Pat. No. 5,447,851) (human, UniProt P20333 23-257); experiment: ELISA, VEGF-A coated on the plate, Fc fusion protein 0.01-10 nM, detection with anti-human Fc-HRP, OD 415
T1 construct: range 23-257; The ELISAs and photograph assays name TNFR2-Fc; the SPR and MTT assays name ENBREL®; also called TNFR2-Fc (1-257); ENBREL®; not shown: Fc of human IgG
T1 sequence (looked up): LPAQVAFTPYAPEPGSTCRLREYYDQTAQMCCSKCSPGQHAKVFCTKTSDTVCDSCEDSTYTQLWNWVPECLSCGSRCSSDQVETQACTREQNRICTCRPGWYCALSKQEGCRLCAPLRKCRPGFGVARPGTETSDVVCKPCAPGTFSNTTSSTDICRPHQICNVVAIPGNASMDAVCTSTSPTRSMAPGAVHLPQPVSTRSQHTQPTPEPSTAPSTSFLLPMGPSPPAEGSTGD
Protocol: After washing the plate 3 times with each 400 μl of PBS, a blocking was performed with the blocking solution (1% BSA in 100 μl PBS) at 37° C. for 2 hour. […] After washing the plate 3 times with each 400 μl of PBS, 50 μl of 3,3′,5,5′-tetramethylbenzidine (TMB) solution (Sigma-Aldrich T0440) was added into the plate, and were incubated at room temperature for 10 min.

- Kd [1]: 1.35 pM
Molecule: VEGF-Trap (Fc fusion)

- binding result [2]: no binding (tested: 10 nM)
B1: VEGF-A165 (produced from CHO cell) (ligand, UniProt P15692-4 27-191, looked up)
chain: APMAEGGGQNHHEVVKFMDVYQRSYCHPIETLVDIFQEYPDEIEYIFKPSCVPLMRCGGCCNDEGLECVPTEESNITMQIMRIKPHQGQHIGEMSFLQHNKCECRPKKDRARQENPCGPCSERRKHLFVQDPQTCKCSCKNTDSRCKARQLELNERTCRCDKPRR
